Patent US20200223910A1 (STERLING IP, published 2020)

T1: human TNR rCd4-His-FBG (rat; human, UniProt P05540 209-391; Q92752 1128-1358, limits assumed)
T1 construct: domain: domains 3 and 4;domain: FBG; also called Hu TNR; hTNR; not shown: 6His tag
T1 sequence (chain (part 1 of 2), looked up): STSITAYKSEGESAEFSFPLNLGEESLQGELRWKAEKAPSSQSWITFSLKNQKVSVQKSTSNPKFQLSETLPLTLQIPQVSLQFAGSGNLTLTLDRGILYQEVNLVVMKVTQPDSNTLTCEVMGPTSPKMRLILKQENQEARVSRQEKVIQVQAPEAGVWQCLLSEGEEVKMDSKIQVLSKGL
T1 sequence (chain (part 2 of 2), looked up): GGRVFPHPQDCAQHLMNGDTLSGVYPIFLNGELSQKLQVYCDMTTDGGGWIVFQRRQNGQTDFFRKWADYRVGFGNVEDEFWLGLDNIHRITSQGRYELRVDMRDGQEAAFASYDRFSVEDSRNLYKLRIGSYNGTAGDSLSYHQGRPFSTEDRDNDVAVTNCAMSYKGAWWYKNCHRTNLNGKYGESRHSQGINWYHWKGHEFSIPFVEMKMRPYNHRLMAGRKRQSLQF

T2: mouse TNC rCd4-His-FBG (rat; mouse, UniProt P05540 209-391; Q80YX1 1883-2110, limits assumed)
T2 construct: domain: domains 3 and 4;domain: FBG; Biotinylated in the capture ELISA; also called Mu TNC; mTNC; not shown: 6His tag
T2 sequence (chain (part 1 of 2), looked up): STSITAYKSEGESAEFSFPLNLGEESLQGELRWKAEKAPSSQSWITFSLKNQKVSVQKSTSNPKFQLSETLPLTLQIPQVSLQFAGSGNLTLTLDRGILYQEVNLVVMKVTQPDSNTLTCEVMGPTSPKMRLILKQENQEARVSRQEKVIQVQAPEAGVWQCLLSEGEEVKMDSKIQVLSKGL
T2 sequence (chain (part 2 of 2), looked up): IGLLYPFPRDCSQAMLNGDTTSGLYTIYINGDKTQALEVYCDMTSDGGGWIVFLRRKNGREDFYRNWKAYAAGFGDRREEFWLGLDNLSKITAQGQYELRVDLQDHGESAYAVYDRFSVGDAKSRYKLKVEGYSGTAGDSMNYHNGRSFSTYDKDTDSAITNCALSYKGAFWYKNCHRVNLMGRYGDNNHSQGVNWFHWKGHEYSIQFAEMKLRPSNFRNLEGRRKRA

T3: human TNC rCd4-His-FBG (rat; human, UniProt P05540 209-391; P24821 1974-2201, limits assumed)
T3 construct: domain: domains 3 and 4;domain: FBG; C-terminal FBG fusion made in HEK293F cells; biotinylated in the ELISA and HTRF assays; also called Hu TNC; hTNC; not shown: 6His tag
T3 sequence (chain (part 1 of 2), looked up): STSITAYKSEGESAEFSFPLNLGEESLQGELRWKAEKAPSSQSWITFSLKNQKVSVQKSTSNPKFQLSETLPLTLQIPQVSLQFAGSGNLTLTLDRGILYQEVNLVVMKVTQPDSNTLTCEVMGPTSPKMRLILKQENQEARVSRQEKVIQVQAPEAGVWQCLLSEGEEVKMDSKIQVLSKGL
T3 sequence (chain (part 2 of 2), looked up): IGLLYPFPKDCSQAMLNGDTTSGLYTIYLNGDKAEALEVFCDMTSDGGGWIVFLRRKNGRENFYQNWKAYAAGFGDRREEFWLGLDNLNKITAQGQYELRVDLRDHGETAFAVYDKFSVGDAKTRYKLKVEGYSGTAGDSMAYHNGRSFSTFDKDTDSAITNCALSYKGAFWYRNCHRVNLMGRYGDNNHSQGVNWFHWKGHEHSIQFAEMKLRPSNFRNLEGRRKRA


Tests used:
human TNR rCd4-His-FBG [1] = target: T1, human TNR rCd4-His-FBG; assay: SPR, 37 C, purified IgG4 captured on anti-human Fc
Description: (§1) Detailed kinetic parameters were evaluated for the 9 prioritised IgG4 antibodies. Binding characteristics were determined for interaction with human, […] TNC rCD4-His-FBG, and human TNR rCD4-His-FBG. Kinetic assays followed essentially the same protocols as for the off-rate determinations described above, with some modifications as follows. To improve the accuracy of kinetic parameter determination, anti-human Fc IgG was immobilised at lower levels (2229 RU), resulting in a corresponding reduction in the amount of anti-FBG IgG4 captured. Purified anti-FBG IgG4 was diluted to a concentration of 3.5 nM in PBS, pH 7.4, 0.05% Tween-20 and injected into FC2 at a flow rate of 10 μl/min, 60 s contact time. […] Antigens were prepared by doubling dilution in PBS, pH 7.4, 0.05% Tween-20 (highest concentration 100 nM except mouse rCD4-His-FBG which was 7 nM). Assays were performed at 37° C. (30 μl/min, 120 s contact time; mouse rCD4-His-FBGFBG 10 μl/min, 60 s contact time), with both the flow cell and injection chamber equilibrated to this temperature. As before, kinetic parameters were determined by reference cell subtraction and fitting the sensogram experimental data assuming a 1:1 interaction using BIAevaluation software (GE, BR-1005-97).

mouse TNC rCd4-His-FBG [2] = target: T2, mouse TNC rCd4-His-FBG; assay: SPR BIAcore T200, 37 C, IgG4 captured on anti-human Fc, rCd4-His-FBG injected, 1:1 fit; relative to theoretical Rmax
Description: (§2) For the kinetic assay ˜1,500-1,900 response units (RU) of anti-human Fc IgG (GE, BR-1008-39) was immobilised in all flow-cells (FC1-4) on a Series S CM5 sensor chip (BR-1005-30) using EDC/NHS cross-linking chemistry according to the amine coupling kit protocol (GE, BR-1000-50). […] Antibody capture levels ranged typically from 70 RU (for TNR interactions) to 90 RU (for TNC interactions).
(§3) A 1:1 dilution series of antigen in HBS-P+ (30 nM of human and mouse TNC rCd4-His-FBG and 480 nM of human TNR rCd4-His-FBG) was injected with a flow-path via the reference flow cell (FC1 and FC3, respectively) and the antibody capture flow cell (FC2 and FC4, respectively) with a flow rate of 30 μl/min. The association and dissociation phases were measured over a 3.5 and 30 min time period, respectively, for human and mouse TNC rCd4-His-FBG, and 2 and 8 min time period for human TNR rCd4-His-FBG. For interaction analysis with human and mouse TNC rCD4-His-FBG regeneration of free capture antibody surfaces after each antigen injection was done by injection of 3 M MgCl 2 for 60 s and for each sample injection a fresh NSCT antibody was captured. Carry over of antigen was prohibited by an extra needle wash step with 50% DMSO before every injection. Runs were performed at the more physiologically relevant temperature of 37° C.
(§4) Kinetic parameters were determined by reference cell subtraction and fitting the sensorgram experimental data to a 1:1 interaction model using the BIAcore T200 Evaluation software version 2.0.

human TNR rCd4-His-FBG [3] = target: T1, human TNR rCd4-His-FBG; assay: as above
Description: as §2, §3, §4

human TNC rCd4-His-FBG [4] = target: T3, human TNC rCd4-His-FBG; assay: as above
Description: as §2, §3, §4

mouse TNC rCd4-His-FBG [5] = target: T2, mouse TNC rCd4-His-FBG; assay: SPR BIAcore T200, 37 C, IgG4 captured on anti-human Fc, rCd4-His-FBG injected, 1:1 fit
Description: as §2, §3, §4

human TNR rCd4-His-FBG [6] = target: T1, human TNR rCd4-His-FBG; assay: as above
Description: as §2, §3, §4

human TNC rCd4-His-FBG [7] = target: T3, human TNC rCd4-His-FBG; assay: as above
Description: as §2, §3, §4

human TNC rCd4-His-FBG [8] = target: T3, human TNC rCd4-His-FBG; assay: SPR, 37 C, purified IgG4 captured on anti-human Fc
Description: as §1

Row | fold lower affinity than to human TNC FBG (human TNR rCd4-His-FBG [1]) [fold] | SA, surface activity (mouse TNC rCd4-His-FBG [2]) [%] | SA, surface activity (human TNR rCd4-His-FBG [3]) [%] | SA, surface activity (human TNC rCd4-His-FBG [4]) [%] | Kd (mouse TNC rCd4-His-FBG [5]) [nM] | koff (mouse TNC rCd4-His-FBG [5]) [s⁻¹] | kon (mouse TNC rCd4-His-FBG [5]) [M⁻¹ s⁻¹] | Kd (human TNR rCd4-His-FBG [6]) [nM] | koff (human TNR rCd4-His-FBG [6]) [s⁻¹] | kon (human TNR rCd4-His-FBG [6]) [M⁻¹ s⁻¹] | Kd (human TNC rCd4-His-FBG [7]) [nM] | koff (human TNC rCd4-His-FBG [7]) [s⁻¹] | kon (human TNC rCd4-His-FBG [7]) [M⁻¹ s⁻¹] | Kd (human TNC rCd4-His-FBG [8]) [nM] | Binder
1 | > 70 | 303 | 184 | 298 | 0.433 | 0.004 | 9.27e+06 | 52.7 | 0.059 | 1.13e+06 | 1.24 | 0.0042 | 3.4e+06 |  | IgG4 165_13_C3 (antibody, V domains shown, Human IgG4 with hinge modification S241P; also called MAb C3; C3 Mab) VH: QVQLVESGGGLVQPGRSLRLSCAASGFTFDDYAMHWVRQAPGKGLEWVSGISGSGGSTYYADSVKGRFTISRDNAKNSLYLQMNSLRAEDTALYYCAKSYQSDEDAFDIWGQGTMVTVSS VL: DIQMTQSPASLPTPVGDRVTITCRASQYIQGFLNWYQQKPGKAPKLLIYDASNLETGVPSRFSGSGSGTDFTLTISSLQPEDFATYYCQQSYSTPQTFGQGTKVDIKR
2 | > 70 |  |  |  |  |  |  |  |  |  |  |  |  | < 1 | 160_01_A4 IgG4 (antibody, V domains shown) VH: EVRLVQSGAEVKKPGASVKVSCKVSGYTLTELSMHWVRQAPGKGLEWMGGFDPEDGETIYAQKFQGRVTMTEDTSTDTAYMELSSLRSEDTAVYYCATAQKETLGNAIWGQGTLVTVSS VL: DIQMTQSPASLPTSVGDRVTITCRASQYIQGFLNWYQQKPGKAPRLLIYAASTLQDGVPSRFSGSGYGTDFTLTISSLQPEDFATYYCQQSYSTPWTFGQGTKVEIKR
